Experiment [1] deals with SEL1L S658P (mouse knock-in) (mouse (endogenous in MEFs and P0 liver)) (UniProt Q9Z2G6). Kind of experiment: co-IP; IP of endogenous SEL1L from P0 mouse liver lysates (WT, Sel1L^S658P, Sel1L^L709P); same lysis buffer; DERL2 eluted with 0.1 M glycine pH 2.5; immunoblot with quantification. For orientation: Immunoblotting shows a protein as a band on a membrane.
Experiment [2] shares this target. Description: co-IP; IP of endogenous SEL1L (1 ug anti-SEL1L, Protein A agarose, overnight 4 C) from MEF lysates (WT, Sel1L^S658P, Sel1L^L709P, Sel1L^P699T, Sel1L^ERCre KO); 150 mM NaCl, 25 mM Tris-HCl pH 7.5, 0.2% NP-40, 0.1% Triton X-100; immunoblot, prey band normalised to bait.
The target of experiment [3] is HRD1 (mouse) (mouse (endogenous in MEFs and P0 liver)) (UniProt Q9DBY1). Kind of experiment: co-IP; reciprocal IP of endogenous HRD1 (anti-HRD1, Protein A agarose) from MEF lysates; same lysis buffer; immunoblot.

On to “HRD1 (mouse) (from UniProt Q9DBY1 1-612) (enzyme)”, for which the reduction of HRD1 association against WT in experiment [1] was 80%. Also, the reduction of HRD1 binding against WT in experiment [2] stood at 60%.

In the case of “SEL1L S658P (mouse knock-in) (from UniProt Q9Z2G6 22-790) (natural protein)”, in experiment [3], the reduction of SEL1L–HRD1 binding against WT came out at 60%.

B1: DERL2 (mouse) (natural protein)
chain: MAYQSLRLEYLQIPPVSRAYTTACVLTTAAVQLELITPFQLYFNPELIFKHFQIWRLITNFLFFGPVGFNFLFNMIFLYRYCRMLEEGSFRGRTADFVFMFLFGGFLMTLFGLFVSLVFLGQAFTIMLVYVWSRRNPYVRMNFFGLLNFQAPFLPWVLMGFSLLLGNSIIVDLLGIAVGHIYFFLEDIFPNQPGGIRILKTPSILRTIFDTPDEDPNYNPLPEERPGGFAWGEGQRLGG
Turning to B1, the decrease of DERL2 interaction against WT in experiment [1] was found to be 60%.

The values above are taken from publication PMC12891039.
